Measured values published in patent publication US20070286859A1.

Biological target: FcγRIIIa on human PBMCs expressing heterozygous V158/F158 FcγRIIIa (human) (UniProt P08637)
Test: cell-based or functional assay

Sequence of FcγRIIIa on human PBMCs expressing heterozygous V158/F158 FcγRIIIa (human) (P08637 17-254): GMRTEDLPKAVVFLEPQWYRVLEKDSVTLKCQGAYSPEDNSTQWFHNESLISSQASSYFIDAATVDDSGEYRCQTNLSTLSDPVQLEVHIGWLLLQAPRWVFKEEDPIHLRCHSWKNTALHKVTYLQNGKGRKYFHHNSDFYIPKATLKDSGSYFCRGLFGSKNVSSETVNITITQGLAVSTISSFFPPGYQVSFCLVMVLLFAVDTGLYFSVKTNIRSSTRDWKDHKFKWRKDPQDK

| Substance | ADCC EC50 [ng/mL] | ADCC Fold WT [fold] | ADCC log(EC50) |
| --- | --- | --- | --- |
| S239D/I332E alemtuzumab (antibody) | 3 | 3.3 | 0.49 |
| V264I/I332E alemtuzumab (antibody) | 4 |  | 0.6 |
